Values joined by “and” are separate entries in the source; they are usually repeats but may differ in a detail not shown here. Equal values may be shown once.
What was measured:
[1] = Plasma level of inhibitor in clinical studies (pharmacokinetics); conditions: human subjects, administered in vivo
Lp-PLA2 = biological target: T1, Lp-PLA2 (Homo sapiens, UniProt Q13093); experiment: Auto PAF AH assay (Azwell kit, Olympus Au640); assay type: biochemical
T1 construct: Unless otherwise indicated all plasma samples were collected from human and are human plasma; from tissue; host or cells: human blood plasma (EDTA)
T1 sequence (Q13093 22-441): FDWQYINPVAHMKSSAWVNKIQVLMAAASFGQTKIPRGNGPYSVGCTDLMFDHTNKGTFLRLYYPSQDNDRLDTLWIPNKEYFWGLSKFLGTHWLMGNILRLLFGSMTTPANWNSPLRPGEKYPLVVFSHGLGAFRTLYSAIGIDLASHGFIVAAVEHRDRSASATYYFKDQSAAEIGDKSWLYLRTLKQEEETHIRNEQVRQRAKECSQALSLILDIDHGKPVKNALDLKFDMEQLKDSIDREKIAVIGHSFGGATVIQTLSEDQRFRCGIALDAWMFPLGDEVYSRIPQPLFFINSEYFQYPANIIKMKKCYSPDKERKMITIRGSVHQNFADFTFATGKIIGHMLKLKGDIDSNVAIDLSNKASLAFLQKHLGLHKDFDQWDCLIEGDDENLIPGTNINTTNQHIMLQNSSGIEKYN
Procedure: The Auto PAF AH assay kit, manufactured by Azwell (Osaka, Japan), is commercially available in the United States through Karlan Research Products Corporation (Santa Rosa, Calif.).
Azwell Auto PAF-AH Assay Kit:
Prepare the following reagents: • R1: Use this buffer solution as supplied in Azwell Auto PAF AH assay kit. Store at 4° C. Protect from light. • R2: Prepare the R2 working solution by mixing R2A and R2B (supplied in Azwell Auto PAF AH assay kit) in the proportion of 19:1. Store at 4° C. Protect from light. • 3. […] Briefly centrifuge to spin down fibrin clots/particles in the plasma. • 4. Place Sarstedt tubes containing plasma samples onto sample tubes that fit the instrument. Run plasma samples through the Au640 analyzer. After choosing the PAF AH assay program, the analytical procedure described below is performed automatically: • Test sample (2 μL)+R1 (240 μL), 37° C., 5 minutes [0-5 minutes] • Add R2 (80 μL), 37° C., 5 minutes [5-10 minutes] • Measure the absorbance at 410 nm and 480 nm [6-8 minutes] • Calculate PAF AH activity (IU/L) • 5.

[2] = biological target: T2, recombinant human Lp-PLA2 protein (hrLp-PLA2) (Homo sapiens, UniProt Q13093); experiment: Modified colorimetric assay of recombinant human Lp-PLA2 protein (dynamic range); assay type: biochemical; conditions: for Activity (assay dynamic range): hrLp-PLA2 14.6-3750 ng/ml, […] substrate/45 μL
T2 construct: made in house
T2 sequence (Q13093 22-441): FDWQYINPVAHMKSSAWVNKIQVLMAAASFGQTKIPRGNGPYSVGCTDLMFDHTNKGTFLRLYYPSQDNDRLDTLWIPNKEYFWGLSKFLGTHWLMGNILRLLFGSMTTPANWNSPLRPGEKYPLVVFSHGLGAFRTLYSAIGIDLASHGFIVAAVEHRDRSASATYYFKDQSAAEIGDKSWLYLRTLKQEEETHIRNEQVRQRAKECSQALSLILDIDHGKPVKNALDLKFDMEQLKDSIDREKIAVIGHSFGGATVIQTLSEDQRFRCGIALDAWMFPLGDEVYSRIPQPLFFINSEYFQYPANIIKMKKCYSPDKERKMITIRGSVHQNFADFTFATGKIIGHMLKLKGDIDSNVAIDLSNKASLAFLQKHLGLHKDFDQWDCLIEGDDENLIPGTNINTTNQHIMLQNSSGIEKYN
Procedure: (§1) Assay dynamic range was defined by using both recombinant human Lp-PLA2 protein (hrLp-PLA2) generated in-house and Lp-PLA2 protein purified from human plasma in-house.
hrLp-PLA2 was serially diluted and 25 μL of each diluted hrLp-PLA2 were assayed by a modified drug-sensitive colorimetric assay (data shown in Table 10). […]. (see Table 10).
[…]. Therefore, such conditions with lower substrate concentration and higher sample volume could be used when higher measurable in vivo inhibition is desired while the range of Lp-PLA2 activity for test samples is limited or could be compromised. […]. Earlier and shorter reaction time could be considered to use in activity calculation to improve assay dynamic range when such conditions are used.

[3] = biological target: T3, hLp-PLA2 purified from plasma (Homo sapiens, UniProt Q13093); experiment: Modified colorimetric assay of Lp-PLA2 purified from human plasma (dynamic range); assay type: biochemical
T3 construct: Lp-PLA2 protein purified from human plasma in-house; from tissue; host or cells: human plasma, purified in-house
T3 sequence (Q13093 22-441): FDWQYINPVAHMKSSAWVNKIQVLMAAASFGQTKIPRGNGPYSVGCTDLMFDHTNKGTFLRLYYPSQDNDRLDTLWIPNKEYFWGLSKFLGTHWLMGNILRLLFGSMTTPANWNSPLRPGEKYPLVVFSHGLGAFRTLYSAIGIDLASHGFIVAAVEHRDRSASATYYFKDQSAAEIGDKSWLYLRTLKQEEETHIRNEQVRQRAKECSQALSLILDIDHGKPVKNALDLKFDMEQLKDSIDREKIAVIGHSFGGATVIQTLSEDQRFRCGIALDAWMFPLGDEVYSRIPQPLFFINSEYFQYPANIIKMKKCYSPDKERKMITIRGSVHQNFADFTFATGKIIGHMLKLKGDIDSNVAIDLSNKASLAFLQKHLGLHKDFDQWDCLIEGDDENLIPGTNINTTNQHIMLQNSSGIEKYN
Procedure: as §1
hLp-PLA2 purified from plasma was also serially diluted and 25 pt of each dilution were assayed by a modified drug-sensitive colorimetric assay (data shown in Table 11). […] The relatively lower upper limit of the dynamic range determined by purified hLp-PLA2 may be resulted from interference factors possibly present in the purified product and/or introduced during purification process. Limited availability of such purified protein prevents further investigation.

**Q.** With `CCN(CC)CCN(Cc1ccc(-c2ccc(C(F)(F)F)cc2)cc1)C(=O)Cn1c(SCc2ccc(F)cc2)nc(=O)c2c1CCC2` [Formula II, 1-(N-(2-(Diethylamino)ethyl)-N-(4-(4-trifluoromethylphenyl)benzyl)-aminocarbonylmethyl)-2-(4-fluorobenzyl)thio-5,6-trimethylenepyrimidin-4-one bitartrate] as the molecule, how does the peak plasma level [1] read?
**A.** Its peak plasma level is 90 ng/mL.

**Q.** Which results are given for `COCCN1CCC(N(Cc2ccc(-c3ccc(C(F)(F)F)cc3)cc2)C(=O)Cn2c(SCc3cccc(F)c3F)cc(=O)c3ccccc32)CC1` [Formula I]?
**A.** drug inhibition by Auto PAF AH assay (Lp-PLA2; four subjects, 80-240 mg in vivo): failed to indicate drug inhibition; Lp-PLA2 inhibition measured by Auto PAF AH assay (Lp-PLA2; six drug-treated human subjects, 120-240 mg in vivo): not apparent

**Q.** Which Km (Lp-PLA2; plasma as the enzyme source, Auto PAF AH protocol) does the source give for `CCCCCCCCCCCCCC(=O)OCC(COP(=O)([O-])OCC[N+](C)(C)C)OC(=O)CCC(=O)Oc1ccc([N+](=O)[O-])cc1` (stereo not shown) [substrate, reference compound] here?
**A.** Its Km is ~200 µM and 200 µM.

B1: hrLp-PLA2: recombinant human Lp-PLA2 protein generated in-house (protein, UniProt Q13093 22-441, looked up)
Platelet-activating factor …: FDWQYINPVAHMKSSAWVNKIQVLMAAASFGQTKIPRGNGPYSVGCTDLMFDHTNKGTFLRLYYPSQDNDRLDTLWIPNKEYFWGLSKFLGTHWLMGNILRLLFGSMTTPANWNSPLRPGEKYPLVVFSHGLGAFRTLYSAIGIDLASHGFIVAAVEHRDRSASATYYFKDQSAAEIGDKSWLYLRTLKQEEETHIRNEQVRQRAKECSQALSLILDIDHGKPVKNALDLKFDMEQLKDSIDREKIAVIGHSFGGATVIQTLSEDQRFRCGIALDAWMFPLGDEVYSRIPQPLFFINSEYFQYPANIIKMKKCYSPDKERKMITIRGSVHQNFADFTFATGKIIGHMLKLKGDIDSNVAIDLSNKASLAFLQKHLGLHKDFDQWDCLIEGDDENLIPGTNINTTNQHIMLQNSSGIEKYN
**Q.** What does the source list for B1?
**A.** Activity ([2]; hrLp-PLA2 4.88 ng/mL, […] Substrate/45 μL): 2.71 nmol/min/mL; Activity ([2]; hrLp-PLA2 9.77 ng/mL, […] Substrate/45 μL): 5.13 nmol/min/mL; Activity ([2]; hrLp-PLA2 19.53 ng/mL, […] Substrate/45 μL): 9.27 nmol/min/mL; Activity ([2]; hrLp-PLA2 39.06 ng/mL, […] Substrate/45 μL): 17.81 nmol/min/mL; Activity ([2]; hrLp-PLA2 78.13 ng/mL, […] Substrate/45 μL): 30.16 nmol/min/mL; Activity ([2]; hrLp-PLA2 156.25 ng/mL, […] Substrate/45 μL): 51.62 nmol/min/mL; Activity ([2]; hrLp-PLA2 312.50 ng/mL, […] Substrate/45 μL): 84.14 nmol/min/mL; Activity ([2]; hrLp-PLA2 625.00 ng/mL, […] Substrate/45 μL): 109.44 nmol/min/mL; Activity ([2]; hrLp-PLA2 1250.00 ng/mL, […] Substrate/45 μL): 93.90 nmol/min/mL; Activity ([2]; hrLp-PLA2 1650 ng/ml, 25 uL assayed): 30.0 nmol/min/mL; Activity ([2]; hrLp-PLA2 3300 ng/ml, 25 uL assayed): 69.7 nmol/min/mL; Activity ([2]; hrLp-PLA2 6600 ng/ml, 25 uL assayed): 169.0 nmol/min/mL; Activity ([2]; hrLp-PLA2 14666 ng/ml, 25 uL assayed): 413.7 nmol/min/mL; Activity (assay dynamic range) ([2]; reaction time used for calculation 30 sec-0): 3.4 to 210 nmol/min/mL; Activity (assay dynamic range) ([2]; reaction time used for calculation 1 min-0): 3.2 to 196.5 nmol/min/mL

B2: Purified hLp-PLA2 (protein, UniProt Q13093 22-441, looked up)
Platelet-activating factor …: FDWQYINPVAHMKSSAWVNKIQVLMAAASFGQTKIPRGNGPYSVGCTDLMFDHTNKGTFLRLYYPSQDNDRLDTLWIPNKEYFWGLSKFLGTHWLMGNILRLLFGSMTTPANWNSPLRPGEKYPLVVFSHGLGAFRTLYSAIGIDLASHGFIVAAVEHRDRSASATYYFKDQSAAEIGDKSWLYLRTLKQEEETHIRNEQVRQRAKECSQALSLILDIDHGKPVKNALDLKFDMEQLKDSIDREKIAVIGHSFGGATVIQTLSEDQRFRCGIALDAWMFPLGDEVYSRIPQPLFFINSEYFQYPANIIKMKKCYSPDKERKMITIRGSVHQNFADFTFATGKIIGHMLKLKGDIDSNVAIDLSNKASLAFLQKHLGLHKDFDQWDCLIEGDDENLIPGTNINTTNQHIMLQNSSGIEKYN
**Q.** Which Activity ([3]; Purified hLp-PLA2 6.25 ng/ml) does the source give for B2 here?
**A.** Its Activity is 2.47 nmol/min/mL.

**Q.** What about the Activity ([3]; Purified hLp-PLA2 12.50 ng/ml) of the same molecule?
**A.** Its Activity is 5.06 nmol/min/mL.

**Q.** And the Activity ([3]; Purified hLp-PLA2 50.00 ng/ml)?
**A.** The Activity was 25.68 nmol/min/mL.

**Q.** And the Activity ([3]; Purified hLp-PLA2 100.00 ng/ml)?
**A.** Its Activity is 54.34 nmol/min/mL.

**Q.** What about the Activity ([3]; Purified hLp-PLA2 200.00 ng/ml) of the same molecule?
**A.** The Activity was 119.34 nmol/min/mL.

**Q.** And the Activity ([3]; Purified hLp-PLA2 400.00 ng/ml)?
**A.** The Activity was 212.95 nmol/min/mL.

**Q.** What about the Activity ([3]; Purified hLp-PLA2 600.00 ng/ml) of the same molecule?
**A.** The Activity was 273.60 nmol/min/mL.

**Q.** And the Activity ([3]; Purified hLp-PLA2 800.00 ng/ml)?
**A.** The Activity was 324.85 nmol/min/mL.

**Q.** What about the Activity ([3]; Purified hLp-PLA2 1000.00 ng/ml) of the same molecule?
**A.** The Activity was 338.51 nmol/min/mL.

Reference: patent US8609357B2, “Methods for detecting LP-PLA2 activity and inhibition of LP-PLA2 activity” (Glaxo Group Limited, priority 2004, dated 2013)
